± gives the standard deviation of the averaged measurements.
B1: library; a variant is named by its letters at N, in order (parent)
chain: GCUGUCACCGGUGCUUGGUACGUUAUAUUCAGCCGGUCUGAUGAGUCUNNNNNNAGACGAAACAGC

Tests used:
[1] = variants of: B1; test: FACS-Seq fitted mean relative fluorescence mCherry/BFP without ligand (log10 relative fluorescence); HEK293T overexpressing SLC46A1; higher = higher reporter protein expression; settings: without (6R,S)-folinic acid; ligand present: no
Summary of the method: (§1)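 An mCherry reporter containing the ribozyme switch and an EF1α-BFP marker were introduced by lentivirus into HEK293T libraries. Cells were enriched, incubated 48 h with or without ligand, sorted into 6 bins by mCherry/BFP, and bin genomic DNA was PCR-amplified, barcoded and sequenced on MiSeq. Fluorescence represents the normalized fitted normal mean of the bin counts. Fitting was done on log10(mCherry/BFP), scaling to five spiked-in control ribozymes.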

[2] = variants of: B1; test: normalized RNA/DNA level without ligand (relative to sTRSVctl = 100) (log10 (% of sTRSVctl)); HEK293T overexpressing SLC46A1; higher = less ribozyme self-cleavage, higher mRNA level; settings: without (6R,S)-folinic acid; ligand present: no
Experimental: (§2)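 Hammerhead (sTRSV) ribozyme switch libraries with a ligand aptamer grafted on stem I and a randomized N4-6 loop II, cloned into the 3' UTR of mCherry and transiently transfected into HEK293T cells; RNA-Seq 72 h post transfection with ligand added 1 h before transfection; RNA read count / plasmid DNA read count normalized to the non-cleaving sTRSVctl (x100), log10; sequences with >100 DNA reads. FACS-Seq: lentiviral library sorted into 6 bins after 48 h ligand, log-normal fit mean of mCherry/BFP scaled to controls. Printed sequences are partial switch sequences.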

[3] = variants of: B1; test: FACS-Seq fitted mean relative fluorescence mCherry/BFP with ligand (log10 relative fluorescence); HEK293T overexpressing SLC46A1; ligand concentration (+) FACS-Seq: 6 mM; higher = higher reporter protein expression; settings: with (6R,S)-folinic acid; ligand present: yes
Summary of the method: as §1

[4] = variants of: B1; test: normalized RNA/DNA level with ligand (relative to sTRSVctl = 100) (log10 (% of sTRSVctl)); HEK293T overexpressing SLC46A1; ligand concentration (+) RNA-Seq: 6 mM; higher = less ribozyme self-cleavage, higher mRNA level; settings: with (6R,S)-folinic acid; ligand present: yes
Experimental: as §2

Variant | FACS-Seq fitted mean (log10) [1] | normalized RNA/DNA level without ligand (log10) [2] | FACS-Seq fitted mean (log10) [3] | normalized RNA/DNA level with ligand (log10) [4]
GGAAAC | 0.359 ± 0.026 | 2.021 ± 0.0084 | 0.243 ± 0.22 | 2.0107 ± 0.00078
GGAAAG | 0.253 ± 0.061 | 1.955 ± 0.0027 | 0.123 ± 0.011 | 2.02 ± 0.041
GGAAAA | 0.526 ± 0.051 | 1.983 ± 0.011 | 0.455 ± 0.15 | 2.04 ± 0.041
ACGUGA | 0.282 ± 0.011 | 1.958 ± 0.012 | 0.173 ± 0.2 | 2.025 ± 0.015
CCGGUU | 0.218 ± 0.017 | 2.038 ± 0.016 | -0.22 ± 0.1 | 2.01 ± 0.018
CCUACA | -0.221 ± 0.03 | 2.02 ± 0.044 | -0.392 ± 0.29 | 2.04 ± 0.043
GCUUAA | 0.522 ± 0.21 | 1.9846 ± 0.00062 | 0.5605 ± 0.0027 | 2.01 ± 0.023
GCUUAC | 0.583 ± 0.13 | 2.02 ± 0.026 | 0.554 ± 0.32 | 2.01 ± 0.052
ACGCCU | -0.804 ± 0.062 | 2.07 ± 0.011 | -1.68 ± 0.58 | 2.06 ± 0.046
UCUCGA | 0.597 ± 0.079 | 2.071 ± 0.012 | 0.413 ± 0.029 | 2.03 ± 0.021
UCUCGU | 0.148 ± 0.028 | 1.9916 ± 0.0016 | -0.0695 ± 0.1 | 2.012 ± 0.013
GCGAGC | 0.231 ± 0.076 | 2.014 ± 0.01 | 0.217 ± 0.14 | 2.036 ± 0.014
GCGAGA | 0.0695 ± 0.067 | 1.996 ± 0.016 | 0.197 ± 0.13 | 2.03 ± 0.018
GCGCAC | 0.472 ± 0.12 | 1.99 ± 0.007 | 0.311 ± 0.17 | 2.01 ± 0.04
UGACCA | 0.061 ± 0.12 | 2.042 ± 0.0098 | -0.0235 ± 0.23 | 2.05 ± 0.039
ACGUAA | 0.69 ± 0.24 | 1.962 ± 0.0024 | 0.689 ± 0.3 | 2.006 ± 0.0065
ACGUAG | 0.217 ± 0.032 | 1.912 ± 0.0036 | 0.598 ± 0.16 | 1.9927 ± 0.0014
GCUGUU | 0.356 ± 0.02 | 2.043 ± 0.0085 | 0.145 ± 0.17 | 2.04 ± 0.042
GCGUAC | 0.258 ± 0.3 | 1.974 ± 0.0093 | 0.514 ± 0.11 | 2.02 ± 0.022
GCGUAA | 0.297 ± 0.07 | 1.991 ± 0.014 | 0.2 ± 0.11 | 2.04 ± 0.046
GCGUAG | 0.314 ± 0.07 | 1.962 ± 0.0022 | 0.372 ± 0.13 | 2.05 ± 0.022
GCGAUG | 0.371 ± 0.13 | 1.959 ± 0.008 | 0.407 ± 0.055 | 2.02 ± 0.043
UGAAUG | 0.0422 ± 0.017 | 1.758 ± 0.0067 | 0.2668 ± 0.0023 | 1.98 ± 0.021
UCUGUU | 0.459 ± 0.039 | 2.02 ± 0.03 | 0.679 ± 0.29 | 2.0647 ± 0.00045

Variant | FACS-Seq fitted mean (log10) [1] | normalized RNA/DNA level without ligand (log10) [2] | FACS-Seq fitted mean (log10) [3] | normalized RNA/DNA level with ligand (log10) [4]
AGACGA | -0.49 ± 0.11 | 1.99 ± 0.015 | -0.617 ± 0.18 | 2.02 ± 0.03
AGACGC | 0.389 ± 0.13 | 2.018 ± 0.016 | 0.336 ± 0.11 | 2.01 ± 0.042
ACGGUU | 0.41 ± 0.022 | 1.99 ± 0.02 | 0.495 ± 0.047 | 2.01 ± 0.025
UGACUG | 0.14 ± 0.2 | 1.857 ± 0.0074 | 0.368 ± 0.08 | 1.99 ± 0.054
CCGAGC | 0.201 ± 0.25 | 2.049 ± 0.0044 | 0.357 ± 0.22 | 2.01 ± 0.03
GCUCAA | 0.44 ± 0.027 | 1.978 ± 0.0021 | 0.374 ± 0.1 | 1.985 ± 0.013
GCUCAU | -0.192 ± 0.045 | 2.02 ± 0.029 | -0.09 ± 0.67 | 2.009 ± 0.013
GCUCAC | 0.502 ± 0.15 | 2.046 ± 0.0078 | 0.372 ± 0.23 | 2.032 ± 0.01
ACUGUG | 0.5433 ± 0.0045 | 1.853 ± 0.017 | 0.593 ± 0.12 | 2 ± 0.022
ACGAAG | 0.365 ± 0.028 | 1.834 ± 0.0094 | 0.953 ± 0.2 | 1.993 ± 0.017
GGAAUC | -0.317 ± 0.23 | 2.055 ± 0.0066 | -0.244 ± 0.51 | 2.05 ± 0.023
GGAAUG | 0.589 ± 0.011 | 1.973 ± 0.0085 | 0.668 ± 0.1 | 2.03 ± 0.029
GGAAUU | 0.362 ± 0.1 | 2.046 ± 0.0046 | 0.236 ± 0.27 | 2.061 ± 0.016
ACGGGA | 0.247 ± 0.026 | 1.941 ± 0.0036 | 0.471 ± 0.17 | 2.01 ± 0.038
UCGACU | 0.225 ± 0.028 | 2.011 ± 0.0057 | 0.701 ± 0.28 | 2.01 ± 0.022
ACGAUC | 0.555 ± 0.16 | 2.062 ± 0.0089 | 0.363 ± 0.0082 | 2.038 ± 0.0079
CGAAAA | 0.189 ± 0.032 | 1.955 ± 0.014 | 0.493 ± 0.17 | 1.98 ± 0.022
CGAAAG | -0.0838 ± 0.12 | 1.9719 ± 0.00015 | 0.0563 ± 0.36 | 1.98 ± 0.027
UGAGAA | 0.5 ± 0.038 | 1.917 ± 0.011 | 0.533 ± 0.26 | 1.98 ± 0.026
ACUUAG | 0.58 ± 0.02 | 1.93 ± 0.0033 | 0.402 ± 0.071 | 1.978 ± 0.0025
ACUUAA | -0.0941 ± 0.16 | 1.974 ± 0.011 | -0.044 ± 0.31 | 1.98 ± 0.033
ACUUAU | 0.328 ± 0.084 | 1.991 ± 0.0041 | 0.329 ± 0.12 | 2.02 ± 0.031
ACUUAC | 0.478 ± 0.045 | 2.009 ± 0.0089 | 0.5359 ± 0.00057 | 2.016 ± 0.014
CCUAAG | 0.536 ± 0.044 | 1.9074 ± 0.0005 | 0.332 ± 0.0073 | 2.002 ± 0.018

Variant | FACS-Seq fitted mean (log10) [1] | normalized RNA/DNA level without ligand (log10) [2] | FACS-Seq fitted mean (log10) [3] | normalized RNA/DNA level with ligand (log10) [4]
CCUAAU | 0.239 ± 0.0063 | 2.041 ± 0.011 | 0.0269 ± 0.022 | 2.07 ± 0.067
UCGUUG | 0.531 ± 0.029 | 1.881 ± 9.4e-05 | 0.5984 ± 0.0051 | 2.006 ± 0.0038
UGAAAG | 0.184 ± 0.14 | 1.8081 ± 0.0016 | 0.436 ± 0.3 | 1.98 ± 0.031
UGAAAC | 0.4232 ± 0.0017 | 1.946 ± 0.0065 | 0.578 ± 0.21 | 2 ± 0.042
UGAAAA | 0.648 ± 0.13 | 1.98 ± 0.021 | 0.692 ± 0.22 | 1.992 ± 0.019
UGAAAU | 0.196 ± 0.11 | 1.81 ± 0.027 | 0.516 ± 0.39 | 1.97 ± 0.027
GCGUGG | 0.353 ± 0.032 | 1.968 ± 0.0025 | 0.444 ± 0.14 | 2.06 ± 0.046
GCUAAU | 0.513 ± 0.029 | 1.986 ± 0.0026 | 0.516 ± 0.027 | 2.02 ± 0.022
UCGGAA | 0.527 ± 0.079 | 1.897 ± 0.0085 | 0.24 ± 0.14 | 1.99 ± 0.037
UCGGAG | 0.429 ± 0.14 | 1.74 ± 0.019 | 0.837 ± 0.14 | 1.972 ± 0.0045
UCGGAU | 0.33 ± 0.067 | 1.946 ± 0.019 | 0.517 ± 0.14 | 2.01 ± 0.024
GCUCUG | 0.433 ± 0.072 | 1.99 ± 0.024 | 0.646 ± 0.038 | 2.03 ± 0.037
CCUAGC | 0.339 ± 0.022 | 2.075 ± 0.011 | 0.3 ± 0.46 | 2.053 ± 0.006
UCGUAC | 0.373 ± 0.053 | 2.032 ± 0.019 | 0.343 ± 0.14 | 2.049 ± 0.0073
UCGUAA | -0.407 ± 0.028 | 1.937 ± 0.0094 | -0.393 ± 0.27 | 2.007 ± 0.0097
UCGCAU | 0.644 ± 0.045 | 1.97 ± 0.018 | 0.661 ± 0.25 | 2 ± 0.042
CCUCCA | 0.578 ± 0.057 | 2.02 ± 0.031 | 0.469 ± 0.016 | 2.04 ± 0.027
CGAACC | 0.4 ± 0.15 | 2.059 ± 0.013 | 0.315 ± 0.15 | 2.02 ± 0.054
CGAACA | 0.317 ± 0.096 | 1.981 ± 0.0064 | 0.446 ± 0.21 | 1.985 ± 0.0071
CGAGAA | 0.311 ± 0.059 | 1.9567 ± 0.0017 | 0.426 ± 0.19 | 2.01 ± 0.039
UGACAA | -0.327 ± 0.12 | 1.952 ± 0.0062 | -0.72 ± 0.24 | 2.024 ± 0.018
UGACAG | 0.327 ± 0.16 | 1.82 ± 0.022 | 0.34 ± 0.028 | 1.971 ± 0.0094
GCGGAG | 0.2 ± 0.093 | 1.89 ± 0.022 | 0.18 ± 0.029 | 2.01 ± 0.051
